± gives the standard deviation of the averaged measurements.
Assay: total protein half-life in vivo (active degradation + dilution); higher = more stable protein
[1] = E. coli NCM3722 delta-lon, growth: N-lim chemostat, doubling time 6 h
[2] = E. coli NCM3722 delta-smpB, growth: N-lim chemostat, doubling time 6 h
[3] = wild type E. coli NCM3722, growth: C-lim chemostat, doubling time 3 h
[4] = wild type E. coli NCM3722, growth: N-lim chemostat, doubling time 6 h
[5] = wild type E. coli NCM3722, growth: P-lim chemostat, doubling time 6 h
[6] = wild type E. coli NCM3722, growth: P-lim chemostat, doubling time 12 h
[7] = E. coli NCM3722 delta-clpP delta-lon delta-hslV, growth: N-lim chemostat, doubling time 6 h
[8] = E. coli NCM3722 delta-clpP, growth: N-lim chemostat, doubling time 6 h
[9] = E. coli NCM3722 delta-hslV, growth: N-lim chemostat, doubling time 6 h
[10] = wild type E. coli NCM3722, growth: C-lim chemostat, doubling time 6 h
[11] = wild type E. coli NCM3722, growth: C-lim chemostat, doubling time 12 h
[12] = wild type E. coli NCM3722, growth: N-lim chemostat, doubling time 12 h

With “MNIELLQQLCEASAVSGDEQEVRDILINTLEPCVNEITFDGLGSFVARKGNKGPKVAVVGHMDEVGFMVTHIDESGFLRFTTIGGWWNQSMLNHRVTIRTHKGVKIPGVIGSVAPHALTEKQKQQPLSFDEMFIDIGANSREEVEKRGVEIGNFISPEANFACWGEDKVVGKALDNRIGCAMMAELLQTVNNPEITLYGVGSVEEEVGLRGAQTSAEHIKPDVVIVLDTAVAGDVPGIDNIKYPLKLGQGPGLMLFDKRYFPNQKLVAALKSCAAHNDLPLQFSTMKTGATDGGRYNVMGGGRPVVALCLPTRYLHANSGMISKADYEALLTLIRGFLTTLTAEKVNAFSQFRQVD” the “total protein half-life in vivo” value [1] was 3.4 h, the “total protein half-life in vivo” value [2] was 3.85 ± 0.0073 h and the “total protein half-life in vivo” value [3] was 2.53 h. For the same sequence, the “total protein half-life in vivo” value [4] was 3.72 h, the “total protein half-life in vivo” value [5] was 4.06 h and the “total protein half-life in vivo” value [6] was 9.711 ± 0.074 h.
In the case of “MNIFDHYRQRYEAAKDEEFTLQEFLTTCRQDRSAYANAAERLLMAIGEPVMVDTAQEPRLSRLFSNRVIARYPAFEEFYGMEDAIEQIVSYLKHAAQGLEEKKQILYLLGPVGGGKSSLAERLKSLMQLVPIYVLSANGERSPVNDHPFCLFNPQEDAQILEKEYGIPRRYLGTIMSPWAAKRLHEFGGDITKFRVVKVWPSILQQIAIAKTEPGDENNQDISALVGKVDIRKLEHYAQNDPDAYGYSGALCRANQGIMEFVEMFKAPIKVLHPLLTATQEGNYNGTEGISALPFNGIILAHSNESEWVTFRNNKNNEAFLDRVYIVKVPYCLRISEEIKIYEKLLNHSELTHAPCAPGTLETLSRFSILSRLKEPENSSIYSKMRVYDGESLKDTDPKAKSYQEYRDYAGVDEGMNGLSTRFAFKILSRVFNFDHVEVAANPVHLFYVLEQQIEREQFPQEQAERYLEFLKGYLIPKYAEFIGKEIQTAYLESYSEYGQNIFDRYVTYADFWIQDQEYRDPDTGQLFDRESLNAELEKIEKPAGISNPKDFRNEIVNFVLRARANNSGRNPNWTSYEKLRTVIEKKMFSNTEELLPVISFNAKTSTDEQKKHDDFVDRMMEKGYTRKQVRLLCEWYLRVRKSS [P0ACY3]”, the “total protein half-life in vivo” value [7] is reported as 3.5 ± 0.94 h, the “total protein half-life in vivo” value [8] is reported as 2.691 ± 0.0021 h and the “total protein half-life in vivo” value [9] is reported as 2.49 ± 0.037 h. For the same sequence, the “total protein half-life in vivo” value [1] was 2.38 ± 0.24 h, the “total protein half-life in vivo” value [2] was 2.24 ± 0.06 h and the “total protein half-life in vivo” value [3] was 2.76 ± 0.21 h. The “total protein half-life in vivo” value [10] was 3.41 ± 0.25 h, the “total protein half-life in vivo” value [11] was 4.77 ± 0.46 h and the “total protein half-life in vivo” value [4] was 2.48 ± 0.11 h. The “total protein half-life in vivo” value [12] was 3.09 ± 0.1 h, the “total protein half-life in vivo” value [5] was 4.703 ± 0.016 h and the “total protein half-life in vivo” value [6] was 7.66 ± 0.77 h.
With “MNIIEANVATPDARVAITIARFNNFINDSLLEGAIDALKRIGQVKDENITVVWVPGAYELPLAAGALAKTGKYDAVIALGTVIRGGTAHFEYVAGGASNGLAHVAQDSEIPVAFGVLTTESIEQAIERAGTKAGNKGAEAALTALEMINVLKAIKA” the “total protein half-life in vivo” value [8] was 6.4 ± 0.16 h, the “total protein half-life in vivo” value [9] was 6.59 ± 0.59 h and the “total protein half-life in vivo” value [2] was 5.79 ± 0.1 h. The “total protein half-life in vivo” value [3] was 3.16 ± 0.054 h, the “total protein half-life in vivo” value [10] was 6.41 ± 0.27 h and the “total protein half-life in vivo” value [11] was 13.7 ± 0.27 h. For the same sequence, the “total protein half-life in vivo” value [4] was 6.17 ± 0.85 h, the “total protein half-life in vivo” value [12] was 12.8 ± 0.8 h and the “total protein half-life in vivo” value [5] was 5.73 ± 0.29 h. The “total protein half-life in vivo” value [6] was 13.6 ± 0.3 h.
With “MNILLAFKAEPDAGMLAEKEWQAAAQGKSGPDISLLRSLLGADEQAAAALLLAQRKNGTPMSLTALSMGDERALHWLRYLMALGFEEAVLLETAADLRFAPEFVARHIAEWQHQNPLDLIITGCQSSEGQNGQTPFLLAEMLGWPCFTQVERFTLDALFITLEQRTEHGLRCCRVRLPAVIAVRQCGEVALPVPGMRQRMAAGKAEIIRKTVAAEMPAMQCLQLARAEQRRGATLIDGQTVAEKAQKLWQDYLRQRMQP” the “total protein half-life in vivo” value [7] was 5.73 ± 0.78 h.
For “MNIQALLSEKVRQAMIAAGAPADCEPQVRQSAKVQFGDYQANGMMAVAKKLGMAPRQLAEQVLTHLDLNGIASKVEIAGPGFINIFLDPAFLAEHVQQALASDRLGVATPEKQTIVVDYSAPNVAKEMHVGHLRSTIIGDAAVRTLEFLGHKVIRANHVGDWGTQFGMLIAWLEKQQQENAGEMELADLEGFYRDAKKHYDEDEEFAERARNYVVKLQSGDEYFREMWRKLVDITMTQNQITYDRLNVTLTRDDVMGESLYNPMLPGIVADLKAKGLAVESEGATVVFLDEFKNKEGEPMGVIIQKKDGGYLYTTTDIACAKYRYETLHADRVLYYIDSRQHQHLMQAWAIVRKAGYVPESVPLEHHMFGMMLGKDGKPFKTRAGGTVKLADLLDEALERARRLVAEKNPDMPADELEKLANAVGIGAVKYADLSKNRTTDYIFDWDNMLAFEGNTAPYMQYAYTRVLSVFRKAEIDEEQLAAAPVIIREDREAQLAARLLQFEETLTVVAREGTPHVMCAYLYDLAGLFSGFYEHCPILSAENEEVRNSRLKLAQLTAKTLKLGLDTLGIETVERM”, the “total protein half-life in vivo” value [7] was 5.58 ± 1.2 h, the “total protein half-life in vivo” value [8] was 4.719 ± 0.0071 h and the “total protein half-life in vivo” value [9] was 4.73 ± 0.089 h. The “total protein half-life in vivo” value [1] was 5.12 ± 0.092 h, the “total protein half-life in vivo” value [2] was 4.66 ± 0.21 h and the “total protein half-life in vivo” value [3] was 3.13 ± 0.036 h. The “total protein half-life in vivo” value [10] was 5.89 ± 0.47 h, the “total protein half-life in vivo” value [11] was 10.2 ± 0.2 h and the “total protein half-life in vivo” value [4] was 4.48 ± 0.06 h. For the same sequence, the “total protein half-life in vivo” value [12] was 7.82 ± 0.086 h, the “total protein half-life in vivo” value [5] was 6.03 ± 0.33 h and the “total protein half-life in vivo” value [6] was 12 ± 0.36 h.

From the supplement of paper PMC11246515
